Data reported in a protein production outcome set (Wang et al. 2014).

Experiment: label from the status in PepcDB records

Sequence	protein production
MKRSILNTLLNVLAIIFIVFLMIKVSVPMGSILLLSFIIFKLTINKHLIYMFKGAKKLRANNLEEALSLYRKAALCNSSNVKAIKTYVFLELKIGSYTEALETLKSIVSKRKFLPEDANQLDLLQAILYWKLNDIKTSLQILDDLKANNFNSLDFYEVYGYVLIQDEDFEKAISISNEGLKVDELSQIIRANLGEIFYKIGDIKKACFYFDELIDECVNFSEPYYFMGIISKEKEDFYKAKEFLNKALKYDESILSNLSKNDIENALISINH	failed
MCEIFIRANQRSYSVQARSLRLHGVATSVRLEQLFWDVLEEIAARDGMRVTQLIERLYDELVQYRGEAANFTSFLRVCCLRYQVLQAEGRIPADATVPIRSLDAQAVLRGLPANLYDSRPLG	not failed
MSIITRLFNNSDFEKLNQLCKLYDDLGYPTNENDLKKRLKKITNHDDYFLLLLIKENKIIGLSGMCKMMFYEKNAEYMRILAFVIHSEFRKKGYGKRLLADSEEFSKRLNCKAITLNSGNRNERLSAHKLYSDNGYV	failed
MSIDFYNQNASSFYASTVEVDSSSLLEQFTPYLPKGGSVLDAGCGSGRDSKRLIELGFHVDAFDASAALATLAQQLLGKPVRVATFMQFTSTLQYDGIWACASLLHVSKASLPDAFAHLASMLKSGGAFYCSFKYGQGEVERDGRSFTHCDEALLAELLTGSPLVIDKVWLTTDLRVGRENEQWLNAVLLKRLEHHHHHH	not failed
MEGSIASRARLPRATQMAVATLDTNPRMRRPPREPAPPPSPLHQLVVTLATGKWLLLAVALLGGILAGLAGFTRPVLFEAATQIIIDAPSTGTANATATAQDSLDSSIDDHLTMLSSQAHLRRVLTALRQPQAADAAGKSGISAVPPTSGSFVGNLLSRVWSKGGPAAESPEAVDAAALKTLRSGMRVGQELRSRVITIGFTDTSPVRAALVANTFAQVYIEDLVQKRRASDQRELESLVASLPQVQRDLVDATDRLETYRLTHGAVDQSAANNAANETAELGRQIFLSKANLSASESRLRHIEDLRKAGAPVSAIAEEIGSPVLTDLVARQSGAAADGDLGTAINREIEQGIARIAAEANVYRAQVAALEDRKRVRDAAVADTASQLSGLRALEPQVTIVTQHYNELLGRQQDLIRRIAAPSPGVAVLSTAWPPSNPITLPRIFLVPPGMIVFGLMAAVFVLVRNMFNQTLRSEAEAEAELGIPCVGLLPKVSGLHARQLRHLVLVQQNSPFSRAATSLLVTAAPTQGKGQPPHMILVTSSILDDGKTELAWSLALAATRLGGRVLFLDLDRKDARLTNEFRGEFGTIKAHNSFGDYVSERCVLQDAITRMPEIGIDLMAAPGPSEDLLTLLSTVDKSQFTEELLSVYDVVIINGPLGLGGPETRLLKRWADAVLFAVRWAKTRRSIARGVLESLRAGGSVTVPIGSVLTQVNLKRYAGSRLDDNADLLLERV	failed
MLCLTKKRHGLRIEIPPMPILPARPLKYLLASIIALTAGGPDIAVAQAPDSVISQPGTAPASSFRTDRLPGGDVKPSDGVGVFDRMGAKLPDLPPEKDYKGPIDEAYGAYQRGYYLTAMDKALPRAQLGDPAAQTLIGEILSQGLGVKKDVKGAAFWYGKAAEGGDPAAMFKYALMLMEGQGVPRDKVKADDYMRKAAEAGNPSAEFNWAQIVVADNPGEKGLKLALPFYEKSAEQGIADSQYAVAQIYATLKDLPEEKKRLAREWMARAARAGFDTAELDLGIWLVNGVGGPKDYVKGFEWLKLAANGGNVVAQNKLAHLYINAIGTPPNPVEAAKWYVLSRRAGLADPSLEDFYLGIEDDQQKAAIDAANKFRRR	failed
MNPLVIKLGGVLLDSEEALERLFTALVTYREKHERPLVIMHGGGCLVDELMKRLALPVVKKNGLRVTPADQIDIITGALAGTANKTLLAWAVKHQINAVGLCLADGNTVTVTLLDAELGHVGKAQPGSAALVQTLLAAGYMPIISSIGITVEGQLMNVNADQAATALAATLGADLILLSDVSGILDGKGQRIAEMTAQKAEQLIAQGIITDGMVVKVNAALDAARSLGRPVDIASWRHSEQLPALFNGVPIGTRISV	not failed
METPAVSLLVAVYNTETYIRTCLESLRNQTMDNIEIIIVNDGSADASPDIAEEYAKMDNRFKVIHQENQGLGAVRNKGIEAARGEFIAFIDSDDWIEPDYCEQMLRTAGDETDLVICNYAAEFEDTGKTMDSDIAQTYQDQPKEHYIKALFEGKVRGFSWNKLYRRSMIEAHRLSFPLRGELEHVEDQFFSFRAHFFARSVSYVKTPLYHYRIHLSSIVQRYQKKLFESGLALYETNAAFLQENNKLEEYRKELDTFIVLHSSICMLNEWKTSGSRRLFEKLRNVGVICADPVFQESLSKTGTAPFDAKRSCLLLMAKYRMIPFVAMASAVYQRVIEYKMRNRG	failed
MGIIDRRRRRAVLVVAVVAAVLIFVADALSPIDGAVAVLYTGVVLMVAPLGRKFIVVAGYISAVLALTAFLWGHASDLVGGALLRLVVSLVAILITVLLSMRDRSARISLAEQVRILEASHDTVIIRDSAGIVRYWNEGAERLYGRSRDQAIGRHYAELFDESAPVDEIDRSMREAGSWSGEVVRTRRDGARLILASRWLQRRDPEGRAIGVIEASADLTESRRAQAEQRRSERRYSTIFNSAGFAALECDLSDALSLVLSAGADVAASLRADPALLAAAVERIVICEANPAALEMFDADGPGELIVAELLAFSIPDARQALETIFVALTTGSTQIETETRFITRRGRTIDAVLRLSVLPDGTDWSRVLLMAVDVTERNEARTKIERISAELAHAGRVSVLGQLAASIAHEVNQPLAAIINYGKSGKRWLVRPTSDIGEVAECLDKIVSNANRAAEVVGRVRFLARKSAPLTDSVDLVVMLQDAIELLRREIHSVKATVRVELSTPIAMIDCDRVQVQQVFVNLLMNALQAMRGIDGHRQILVRIEDSGDSLTVAVCDTGVGIAGDPARIFEPFFSTKSDGMGLGLSICRTIIEGQGGQILASNNDGPGATVAFTLLRNNPDEGRHNRRLIS	failed
MSLSASLPLAIERRPAAWTFTLSRPEKRNALSAELVEALIDGVDAAHREQVPLLVFAGAGRNFSAGFDFTDYETQSEGDLLLRMVRIEMLLQRVAGSPSLTLALAHGRNFGAGVDLFAACKWRYCTPEAGFRMPGLKFGLVLGTRRFRDIVGADQALSILGSARAFDADEARRIGFVRDCAAQAQWPALIDAAAEAATALDPATRATLHRVLRDDHDDADLAALARSAAQPGFKARIRDYLAQPAAEGHHHHHH	not failed
SASRGKTETSKLKQNLEEQLDRLMQQLQDLEECREELDTDEYEETKKETLEQLSEFNDSLKKIMSGNMTLVDELSGMQLAIQAAISQAFKTPEVIRLFAKKQPGQLRTRLAEMDRDLMVGKLERDLYTQQKVEILTALRKLGEKLTADDEAFLSANAGAILSQFEKVSTDLGSGDKILALASFEVEKTKK	not failed
DLREVLDFMLKDEVSKLRKLLVKIKTKKIAEVEYENVVKALKLFKDNYEINEYLMDENTKEFLIKRNILFLNPVEEILKPQSYLVWNAIKRVLQNINDF	not failed
PTEFLYTSKIAAISWAATGGRQQRVYFQDLNGKIREAQRGGDNPWTGGSSQNVIGEAKLFSPLAAVTWKSAQGIQIRVYCVNKDNILSEFVYDGSKWITGQLGSVGVKVGSNSKLAALQWGGSESAPPNIRVYYQKSNGSGSSIHEYVWSGKWTAGASFGSTVPGTGIGATAIGPGRLRIYYQATDNKIREHCWDSNSWYVGGFSASASAGVSIAAISWGSTPNIRVYWQKGREELYEAAYGGSWNTPGQIKDASRPTPSLPDTFIAANSSGNIDISVFFQASGVSLQQWQWISGKGWSIGAVVPTGTPAGW	not failed
MHFCFISSISKIIDRYEIQHADELRALDLEEKIQNYLPHKELLETVQRLAVRHIFLPSSSDKKNVFFLLSTCEYSKLEEPNVDNVSVDSLISLEEQLETALSVSRARKAELMMEYIESLKEKVSALVFIFDKGHILGYDDS	failed
MWKAVMNAWNGTESQSKNVSNIQSYSFEDMKRIVGKHDPNVVLVDVREPSEYSIVHIPASINVPYRSHPDAFALDPLEFEKQIGIPKPDSAKELIFYCASGKRGGEAQKVASSHGYSNTSLYPGSMNDWVSHGGDKLDL	not failed
MSDYYLFAGRLFIAVMYVLSGANKLLFFSHGLDEVKSRNLPFPQLALSATIAVQLICGLAIMAGFQTTTASLLLALFTLATAVLFYDFWNQEGAQRTLMFTGFLEHISIIGGFALLMGAGPGKFVLLP	failed
SNRLPDDYDPYAVEEPSDEEPALSSSEDEVDVLLHGTPDQKRKLIRECLTGESESSSEDEFEKEMEAELNSTMKTMEDKLSSLGTGSSSGNGKVATAPTRYYDDIYFDSDSEDEDRAVQVTKKKKKKQHKIPTNDELLYDPEKDNRDQAWVDAQRRGYHGLGPQRSREQQPVPNSDAVLNCPACMTTLCLDCQRHESYKTQYRAMFVMNCSINKEEVLRYKASENRKKRRVHKKMRSNQEDAAEKAETDVEEIYHPVMCTECSTEVAVYDKDEVFHFFNVLASHS	not failed
MLSKILYADSGTSQTQEMLKAMMDFPAVQKASITILHVVPPQITTEAFTEKWAEGGKILADLLEDVAIEPSKVSTVLRQGDPKGVVCDVANEIDADLIIMGSRGLKRLEAILENSVSQYVFQLTNHPMLLVKDDIYVKRIKRVMVALDKSAAAEYALELALELLRDYPEGELILARVNPDLKPDLLPLSRQEIEENPVLAPAIAKAKRLGIAYRCTVTGGKPGEKLCELAEDYNADLMLLGSPDRRPSIAKSLPDLDRLLGTSLSDYIRVNAPCPVLLTRKEGI	failed
MSAPIEQPAWTKRMNANPQSQAAPVSAAQQDLQRLRTHLNTQIIGQSDLVDAMLIALLADGHMLVEGAPGLAKTRAIHVLSRGVEADFQRIQFTPDLLPADLTGTEVYRPQDGSFHFQPGPLFHNLVLADEINRSPAKVQSALLEAMAERQITVGRKTYPLPALFLVMATQNPIEQEGTYPLPEAQLDRFLMYVRIGYPGAEQEKAILRLVRGEAGRPECRAAEAMEPVSQQTLFSAREEVLGVYLAEALEDYLLQLILATREPARYGDSLARWILYGVSPRATLALDRCARARAWLDGRDYVTPDDIQALAPAILRHRLILSYEAEAEGVSSDQVVKDLLRRIAVP	failed
MLHIDDAMIEDAVTPQAAQEVLHAAFLDFGRGSAAMQRRVRTEAGGVKLSTLGAVIPGQGVAGAKVYTTIKGQFQFVILLFSAADGRPLATCDAGTLTRKRTAACTVLAAGALARPRSSVLGLFGAGTQGAEHAAQLSARFALEAILVHDPYASPEILERIGRRCGVPARMAAPADIAAQADIVVTATRSTTPLFAGQALRAGAFVGAIGSSLPHTRELDDEALRRARAVVVEWREQTLSEAGDLVLAAPDTGLDAKVVELADVLAGRAAARQADEDIVIYKSVGVGLEDVALAGYAYRRLAAQRGWPAP	not failed
VSVGTHPTFENSPSGTVLTSPPDGSAVDRATDAARRVVDALLRTDRGNANLERVAEELNSIAGHLEEHAPAVAERLIDMWNGEGVTRHDPVTGPENALAPPVVLEGLSDGSVRGTVTLTIPYQGPPGHVHGGVSALLLDHVLGVANAWGGKAGMTAQLSTRYHRPTPLFEPLTLTGKLMSVDGRKITTAGDIRTADGQVCVSVEGLFVDKTVPRPR	not failed
MRFPPLLFFQDSEAVKRIANSVRGTKDDDAEIKDHSMRFIRNAISGDQQKEILNVDMLRYIAWVLVALNENIVTARTVIRERDAVEDALKNQQPEDIENFADDLKINMKYNRDLERFEIGVFDFVKYASRVTGSQYRLSNQSVIKGIVYCQKDVAIKILRESFVSNMFKVIDSIDQTTASPVLSDQTDSINELREFYKKSVYAKLTIGRGNTKAFPPCMKEIIRNLHEGINVPHMGRLAIASFLHKVGYTEDEIVEYFRNAPDFDESITRYQIKHLSGEISGVEYSPPKCETMRSNHLCFMDDDKLCHQDWMKHPLTYYEVKSRRLGLEHHHHHH	failed
